Experimental findings from paper PMC4963475 (2016) are described below.

In assay [1] the target is T1, BubR1/Bub3 complex (3×FLAG–BubR1 with untagged Bub3) (UniProt O60566 1-1050; O43684 1-328). Put plainly: MST.
The target in assay [2] is Bub1(1–553)/Bub3 complex (3×FLAG–Bub1(1–553) with untagged Bub3) (UniProt O43683 1-553; O43684 1-328). Kind of assay: MST.
For assay [3], the target named is T1, BubR1/Bub3 complex (3×FLAG–BubR1 with …). Put plainly: MST; 0 mM NaCl.
Assay [4] shares this target. Put plainly: MST; 50 mM NaCl.
For assay [5] the target is unchanged. Put plainly: MST; 150 mM NaCl.
The target is the same in assay [6]. Put plainly: MST; 200 mM NaCl.

Non-standard residues stand in square brackets, D forms with d. No end group written: not given here. pT = C[C@@H](OP(=O)(O)O)[C@H](N)C(=O)O; Nle = CCCC[C@H](N)C(=O)O Some results are limits rather than exact numbers.

T1 sequence (O60566 whole entry, chain 1 of 2): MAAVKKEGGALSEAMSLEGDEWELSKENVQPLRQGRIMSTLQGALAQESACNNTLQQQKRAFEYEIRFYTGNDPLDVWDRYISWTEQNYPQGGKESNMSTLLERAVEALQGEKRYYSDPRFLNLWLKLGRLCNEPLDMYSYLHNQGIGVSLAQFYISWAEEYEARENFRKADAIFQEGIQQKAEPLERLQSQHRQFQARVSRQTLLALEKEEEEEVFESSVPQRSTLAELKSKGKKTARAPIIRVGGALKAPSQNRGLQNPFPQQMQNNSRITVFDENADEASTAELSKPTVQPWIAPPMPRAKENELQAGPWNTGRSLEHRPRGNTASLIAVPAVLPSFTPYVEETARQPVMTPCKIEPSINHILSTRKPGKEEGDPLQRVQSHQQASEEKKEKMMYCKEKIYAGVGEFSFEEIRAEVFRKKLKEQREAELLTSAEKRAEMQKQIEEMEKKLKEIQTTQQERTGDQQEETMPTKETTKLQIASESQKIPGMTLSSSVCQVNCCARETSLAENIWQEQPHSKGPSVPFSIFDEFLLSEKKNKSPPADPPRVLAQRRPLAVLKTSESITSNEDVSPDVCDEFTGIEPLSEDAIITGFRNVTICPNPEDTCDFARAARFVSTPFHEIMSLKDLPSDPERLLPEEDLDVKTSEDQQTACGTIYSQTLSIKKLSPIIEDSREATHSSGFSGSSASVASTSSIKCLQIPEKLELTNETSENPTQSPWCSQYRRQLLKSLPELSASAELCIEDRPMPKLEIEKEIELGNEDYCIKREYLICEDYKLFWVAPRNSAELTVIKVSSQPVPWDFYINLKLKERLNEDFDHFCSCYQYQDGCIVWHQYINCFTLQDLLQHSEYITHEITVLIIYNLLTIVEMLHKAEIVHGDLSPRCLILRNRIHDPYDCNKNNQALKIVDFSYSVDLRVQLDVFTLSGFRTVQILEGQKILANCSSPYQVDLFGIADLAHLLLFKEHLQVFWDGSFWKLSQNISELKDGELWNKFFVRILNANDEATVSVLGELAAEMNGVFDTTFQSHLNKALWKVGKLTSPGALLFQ
T1 sequence (O43684 whole entry, chain 2 of 2): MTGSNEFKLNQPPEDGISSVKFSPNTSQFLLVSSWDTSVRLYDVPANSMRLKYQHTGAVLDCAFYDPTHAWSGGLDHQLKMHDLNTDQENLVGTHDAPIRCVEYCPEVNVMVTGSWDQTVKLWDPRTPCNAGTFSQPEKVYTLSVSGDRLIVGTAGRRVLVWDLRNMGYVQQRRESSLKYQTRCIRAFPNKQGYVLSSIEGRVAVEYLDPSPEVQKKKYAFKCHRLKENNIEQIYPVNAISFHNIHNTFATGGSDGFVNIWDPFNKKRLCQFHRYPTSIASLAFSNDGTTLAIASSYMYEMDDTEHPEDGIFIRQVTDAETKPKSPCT
Bub1(1–553)/Bub3 complex (3×FLAG–Bub1(1–553) with untagged Bub3), sequence (O43683 1-553, chain 1 of 2): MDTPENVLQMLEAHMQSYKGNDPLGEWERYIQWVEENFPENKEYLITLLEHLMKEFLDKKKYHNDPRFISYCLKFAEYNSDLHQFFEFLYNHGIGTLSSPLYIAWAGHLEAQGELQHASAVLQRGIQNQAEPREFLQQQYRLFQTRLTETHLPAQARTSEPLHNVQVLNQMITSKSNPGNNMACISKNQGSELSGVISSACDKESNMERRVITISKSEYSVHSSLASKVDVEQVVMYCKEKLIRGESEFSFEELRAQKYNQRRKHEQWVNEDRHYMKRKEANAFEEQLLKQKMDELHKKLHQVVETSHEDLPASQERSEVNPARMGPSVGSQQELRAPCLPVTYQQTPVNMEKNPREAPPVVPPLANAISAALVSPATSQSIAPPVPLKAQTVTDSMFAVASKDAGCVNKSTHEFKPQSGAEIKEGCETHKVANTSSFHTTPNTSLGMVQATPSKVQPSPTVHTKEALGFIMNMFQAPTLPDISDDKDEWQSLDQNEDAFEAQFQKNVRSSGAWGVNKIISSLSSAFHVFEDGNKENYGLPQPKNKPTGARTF
Bub1(1–553)/Bub3 complex (3×FLAG–Bub1(1–553) with untagged Bub3), sequence (O43684 whole entry, chain 2 of 2): as the sequence (O43684 whole entry, chain 2 of 2) above

B1: MELT12 peptide (unphosphorylated), Btn-PEG2-C-PEG2-EDDKND-Nle-DI-T-KSYTIEIN-amide (peptide)
peptide: EDDKNDMDITKSYTIEIN
modifications: N-terminal Btn-PEG2-C-PEG2 (biotin, PEG2, cysteine, PEG2); Nle (norleucine) at position 7 of the letters, written here as M; C-terminal amide
For the molecule B1, the figures for the Kd in assay [1] and in assay [2] were greater than 195000 nM and greater than 379000 nM, respectively.

B2: MELT16p peptide, ENHKND-NIe-DI-Tp-QSC-NIe-VEIDY-amide (peptide)
peptide: ENHKND[Nle]DI[pT]QSC[Nle]VEIDY-NH2
modifications: N-terminus assumed
SMILES: CCCC[C@H](NC(=O)[C@H](CC(=O)O)NC(=O)[C@H](CC(N)=O)NC(=O)[C@H](CCCCN)NC(=O)[C@H](Cc1c[nH]cn1)NC(=O)[C@H](CC(N)=O)NC(=O)[C@@H](N)CCC(=O)O)C(=O)N[C@@H](CC(=O)O)C(=O)N[C@H](C(=O)N[C@H](C(=O)N[C@@H](CCC(N)=O)C(=O)N[C@@H](CO)C(=O)N[C@@H](CS)C(=O)N[C@@H](CCCC)C(=O)N[C@H](C(=O)N[C@@H](CCC(=O)O)C(=O)N[C@H](C(=O)N[C@@H](CC(=O)O)C(=O)N[C@@H](Cc1ccc(O)cc1)C(N)=O)[C@@H](C)CC)C(C)C)[C@@H](C)OP(=O)(O)O)[C@@H](C)CC
Regarding B2, the Kd came out at 286 nM in assay [1] and 757 nM in assay [2].

B3: MELT12p peptide (MDIT phosphorylated), Btn-PEG2-C-PEG2-EDDKND-Nle-DI-Tp-KSYTIEIN-amide (peptide)
peptide: EDDKNDMDITKSYTIEIN
modifications: N-terminal Btn-PEG2-C-PEG2 (biotin, PEG2, cysteine, PEG2); Nle (norleucine) at position 7 of the letters, written here as M; phosphothreonine (Tp) at position 10 of the letters (MDIT); C-terminal amide
On to B3, for which the dissociation constant Kd amounted to 258 nM in assay [1]; 579 nM in assay [2]; 82 nM in assay [3]; 259 nM in assay [4]; 379 nM in assay [5]; 936 nM in assay [6].
